In paper PMC4755656, “Interaction Analysis of a Two-Component System Using Nanodiscs” (PLoS ONE, 2016):
Blank lines part the entries; values can stand above or below the binder they belong to.

Experiments:
Settings in all cases: both partners purified
[1] = molecular target: T1, NT-647-labelled CpxA-Strep reconstituted in nanodiscs (CpxA-ND), as used for MST (E. coli, UniProt P0AE82 1-457, NT-647 dye (NHS NT-647 labeling kit; typically one primary amine per protein, position statistical)); assay: MST; NT-647-labelled CpxA-Strep in nanodiscs (or labelled MSP1D1 in empty nanodiscs) constant at 150 nM; unlabelled CpxR (0.007-237.5 µM) or CpxP (0.01-367.5 µM) titrated; HEPES-buffered saline (20 mM HEPES pH 7.5, 150 mM NaCl), RT; no nucleotide
T1 construct: CpxA sits in a lipid bilayer ringed by two MSP1D1 molecules (1:1 molar ratio of MSP to CpxA); also called labeled CpxA-Strep in nanodiscs; CpxA-Strep nanodiscs; source: E. coli BL21(DE3) pLysS, from pI1CpxA, purified (Strep-Tactin Superflow); labelled, then reconstituted into nanodiscs; not shown: Strep, C-terminal, kept
T1 sequence (looked up): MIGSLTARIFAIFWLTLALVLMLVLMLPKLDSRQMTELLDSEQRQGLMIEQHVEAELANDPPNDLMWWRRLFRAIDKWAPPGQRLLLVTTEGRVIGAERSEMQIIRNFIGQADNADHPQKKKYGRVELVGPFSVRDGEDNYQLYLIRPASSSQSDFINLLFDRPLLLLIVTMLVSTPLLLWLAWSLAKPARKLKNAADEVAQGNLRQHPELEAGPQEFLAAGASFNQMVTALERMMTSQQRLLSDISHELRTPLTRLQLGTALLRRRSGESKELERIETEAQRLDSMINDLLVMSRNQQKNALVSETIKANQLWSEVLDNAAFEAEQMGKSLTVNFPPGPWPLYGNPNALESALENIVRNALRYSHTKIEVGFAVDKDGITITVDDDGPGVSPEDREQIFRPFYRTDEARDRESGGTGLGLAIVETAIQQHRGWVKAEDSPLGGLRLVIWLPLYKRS

[2] = molecular target: T2, sensor histidine kinase CpxA reconstituted in nanodiscs (CpxA-ND), as used for SPR (E. coli, UniProt P0AE82 1-457); assay: SPR; His6-CpxR (50 nM, about 300 RU) captured on an anti-His antibody chip; CpxA-ND or empty ND injected at 25-1000 nM; HBS (10 mM HEPES pH 7.4, 150 mM NaCl), 25 °C; constants from Interaction Map analysis of the sensorgrams
T2 construct: CpxA sits in a lipid bilayer ringed by two MSP1D1 molecules whose His-tag was removed with TEV protease for SPR; one or two dimers per nanodisc; also called CpxA in nanodiscs; source: E. coli BL21(DE3) pLysS, purified from solubilised membranes; reconstituted into nanodiscs (MSP1D1, E. coli total lipid extract, beta-cyclodextrin)
T2 sequence (looked up): T1 sequence (looked up)

[3] = molecular target: T3, phosphorylated CpxA in nanodiscs (CpxA-P-ND) (E. coli, UniProt P0AE82 1-457, phosphorylated (autophosphorylation with ATP and MgCl2); residue number not given); assay: SPR; as a1, but CpxA-P-ND injected in the presence of 2 mM Mg2+-ATP; constants from Interaction Map analysis (peak assigned to phosphorylated CpxA)
T3 construct: As m1, phosphorylated; also called phosphorylated CpxA-P-ND; source: E. coli BL21(DE3) pLysS, purified; reconstituted into nanodiscs; phosphorylated by adding ATP and MgCl2 (2 mM Mg2+-ATP present)
T3 sequence (looked up): T1 sequence (looked up)

[4] = molecular target: T1, NT-647-labelled CpxA-Strep …; assay: MST; as a3, with the non-hydrolysable ATP analogue AMP-PNP and MgCl2
[5] = molecular target: T1, NT-647-labelled CpxA-Strep …; assay: MST; as a3, with ADP and MgCl2 (phosphatase-competent state mimicked)
[6] = molecular target: T1, NT-647-labelled CpxA-Strep …; assay: MST; as a3, CpxA-Strep nanodiscs supplemented with 500 µM ATP and 5 mM MgCl2 before mixing with CpxR

- Kd [1]: > 100000 nM
B1: periplasmic accessory protein CpxP, His6-tagged (His6-CpxP) (natural protein, E. coli, UniProt P0AE85 22-166, looked up)
chain: AEVGSGDNWHPGEELTQRSTQSHMFDGISLTEHQRQQMRDLMQQARHEQPPVNVSELETMHRLVTAENFDENAVRAQAEKMANEQIARQVEMAKVRNQMYRLLTPEQQAVLNEKHQQRMEQLRDVTQWQKSSSLKLLSSSNSRSQ
notes: CpxP, periplasmic accessory protein of the Cpx two-component system, E. coli; The introduction says, citing other work, that CpxP acts as a homodimer

- Kd [2]: 236 nM
- koff [2]: 0.000473 s⁻¹
- kon [2]: 2010 M⁻¹ s⁻¹
- Kd [3]: 24.8 nM
- koff [3]: 4.38e-05 s⁻¹
- kon [3]: 1760 M⁻¹ s⁻¹
- Kd [4]: 110 ± 20 nM
- Kd [5]: 1600 ± 300 nM
- Kd [6]: 550 ± 60 nM
- Kd [1]: 3700 ± 500 nM
B2: response regulator CpxR, His6-tagged (His6-CpxR) (natural protein, E. coli, UniProt P0AE88 1-232, looked up)
chain: MNKILLVDDDRELTSLLKELLEMEGFNVIVAHDGEQALDLLDDSIDLLLLDVMMPKKNGIDTLKALRQTHQTPVIMLTARGSELDRVLGLELGADDYLPKPFNDRELVARIRAILRRSHWSEQQQNNDNGSPTLEVDALVLNPGRQEASFDGQTLELTGTEFTLLYLLAQHLGQVVSREHLSQEVLGKRLTPFDRAIDMHISNLRRKLPDRKDGHPWFKTLRGRGYLMVSAS
notes: CpxR, response regulator of the Cpx two-component system, E. coli; not shown: His6, N-terminal, kept
